Patent publication US20180185510A1, “ANTIBODY DRUG CONJUGATES OF KINESIN SPINDEL PROTEIN (KSP) INHIBITORS WITH ANTI-B7H3-ANTIBODIES” (BAYER PHARMA AKTIENGESELLSCHAFT, priority 2015, published 2018)
Several values for one entry are separate records, joined by “and”; a condition that tells them apart may be missing. Equal values may be shown once.

T1: B7H3 on B7H3-positive human tumour cells (A498, MCF-7, Caki-2, 786-0) (human, UniProt Q5ZPR3 29-534)
T1 sequence (looked up): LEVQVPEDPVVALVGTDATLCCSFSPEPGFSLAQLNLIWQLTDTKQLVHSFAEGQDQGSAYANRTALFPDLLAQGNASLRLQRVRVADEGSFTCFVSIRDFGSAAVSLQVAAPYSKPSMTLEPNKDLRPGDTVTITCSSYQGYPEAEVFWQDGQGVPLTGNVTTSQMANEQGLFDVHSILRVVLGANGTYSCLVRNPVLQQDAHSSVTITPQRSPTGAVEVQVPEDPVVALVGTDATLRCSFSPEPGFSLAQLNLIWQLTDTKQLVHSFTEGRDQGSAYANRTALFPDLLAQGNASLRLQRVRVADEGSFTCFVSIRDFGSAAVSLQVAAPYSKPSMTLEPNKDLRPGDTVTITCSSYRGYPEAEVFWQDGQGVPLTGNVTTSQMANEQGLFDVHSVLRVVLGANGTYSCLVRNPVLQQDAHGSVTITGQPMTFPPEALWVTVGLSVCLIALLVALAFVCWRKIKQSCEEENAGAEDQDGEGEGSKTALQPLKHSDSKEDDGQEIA

B1: Example 173L1: anti-B7H3 AK1A (TPP-3803) coupled with Intermediate F173 (antibody, human IgG1, kappa, V domains shown)
VH: QVKLQQSGAELVKPGASVKLSCKASGYTFTNYDINWVRQRPEQGLEWIGWIFPGDGSTQYNEKFKGKATLTTDTSSSTAYMQLSRLTSEDSAVYFCARQTTATWFAYWGQGTTVTVSS
VL: DIELTQSPTTLSVTPGDRVSLSCRASQSISDYLHWYQQKSHESPRLLIKYASQSISGIPSRFSGSGSGSDFTLSINSVEPEDVGVYYCQNGHSFPLTFGAGTKLELKR
modifications: KSP inhibitor-linker (Intermediate F173) on cysteine residues of the partially reduced antibody, sites not given; drug/mAb ratio 3.4
B2: Example 270L1: anti-B7H3 AK1A (TPP-3803) coupled with Intermediate F270 (antibody, human IgG1, kappa, V domains shown)
VH: B1 VH
VL: B1 VL
modifications: KSP inhibitor-linker (Intermediate F270) on cysteine residues of the partially reduced antibody, sites not given; drug/mAb ratio 2.8
B3: Example 194: anti-B7H3 AK1A (TPP-3803) coupled with Intermediate F194 (antibody, human IgG1, kappa, V domains shown)
VH: B1 VH
VL: B1 VL
modifications: KSP inhibitor-linker (Intermediate F194) on lysine residues, sites not given; drug/mAb ratio 2.4
B4: Example 240L1: anti-B7H3 AK1A (TPP-3803) coupled with Intermediate F240 (antibody, human IgG1, kappa, V domains shown)
VH: B1 VH
VL: B1 VL
modifications: KSP inhibitor-linker (Intermediate F240) on cysteine residues of the partially reduced antibody, sites not given; drug/mAb ratio 2.7
B5: Example 297L1 (Isomer 1): anti-B7H3 AK1A (TPP-3803) coupled with Intermediate F297 (antibody, human IgG1, kappa, V domains shown)
VH: B1 VH
VL: B1 VL
modifications: KSP inhibitor-linker (Intermediate F297) on cysteine residues of the partially reduced antibody, sites not given; drug/mAb ratio 2.4
B6: Example 274L1: anti-B7H3 AK1A (TPP-3803) coupled with Intermediate F274 (antibody, human IgG1, kappa, V domains shown)
VH: B1 VH
VL: B1 VL
modifications: KSP inhibitor-linker (Intermediate F274) on cysteine residues of the partially reduced antibody, sites not given; drug/mAb ratio 2.9
B7: Example 259L1: anti-B7H3 AK1A (TPP-3803) coupled with Intermediate F259 (antibody, human IgG1, kappa, V domains shown)
VH: B1 VH
VL: B1 VL
modifications: KSP inhibitor-linker (Intermediate F259) on cysteine residues of the partially reduced antibody, sites not given; drug/mAb ratio 3.0
B8: Example 257L1: anti-B7H3 AK1A (TPP-3803) coupled with Intermediate F257 (antibody, human IgG1, kappa, V domains shown)
VH: B1 VH
VL: B1 VL
modifications: KSP inhibitor-linker (Intermediate F257) on cysteine residues of the partially reduced antibody, sites not given; drug/mAb ratio 2.4
B9: Example 257L2: anti-B7H3 AK1B (TPP-5706) coupled with Intermediate F257 (antibody, human IgG1, kappa, V domains shown)
VH: QVQLQQPGAELVKPGASVKMSCKASGYTFTIYNVHWIKQTPGQGLEWMGTIFPGNGDTSYNQKFKDKATLTTDKSSKTAYMQLNSLTSEDSAVYYCARWDDGNVGFAHWGQGTLVTVSA
VL: DIQMTQSPASLSASVGETVTITCRASENINNYLTWFQQKQGKSPQLLVYHAKTLAEGVPSRFSGSGSGTQFSLKINSLQPEDFGSYYCQHHYGTPPTFGGGTKLEIKR
modifications: KSP inhibitor-linker (Intermediate F257) on cysteine residues of the partially reduced antibody, sites not given; drug/mAb ratio 4.5
B10: Example 281L2: anti-B7H3 AK1B (TPP-5706) coupled with Intermediate F281 (antibody, human IgG1, kappa, V domains shown)
VH: B9 VH
VL: B9 VL
modifications: KSP inhibitor-linker (Intermediate F281) on cysteine residues of the partially reduced antibody, sites not given; drug/mAb ratio 2.4
B11: Example 275L2: anti-B7H3 AK1B (TPP-5706) coupled with Intermediate F275 (antibody, human IgG1, kappa, V domains shown)
VH: B9 VH
VL: B9 VL
modifications: KSP inhibitor-linker (Intermediate F275) on cysteine residues of the partially reduced antibody, sites not given; drug/mAb ratio 3.8
B12: Example 284L2: anti-B7H3 AK1B (TPP-5706) coupled with Intermediate F284 (antibody, human IgG1, kappa, V domains shown)
VH: B9 VH
VL: B9 VL
modifications: KSP inhibitor-linker (Intermediate F284) on cysteine residues of the partially reduced antibody, sites not given; drug/mAb ratio 3.0
B13: Example 240L2: anti-B7H3 AK1B (TPP-5706) coupled with Intermediate F240 (antibody, human IgG1, kappa, V domains shown)
VH: B9 VH
VL: B9 VL
modifications: KSP inhibitor-linker (Intermediate F240) on cysteine residues of the partially reduced antibody, sites not given; drug/mAb ratio 3.5
B14: Example 194L2: anti-B7H3 AK1B (TPP-5706) coupled with Intermediate F194 (antibody, human IgG1, kappa, V domains shown)
VH: B9 VH
VL: B9 VL
modifications: KSP inhibitor-linker (Intermediate F194) on lysine residues, sites not given; drug/mAb ratio 2.9
B15: Example 208L2: anti-B7H3 AK1B (TPP-5706) coupled with Intermediate F104 (stirred at pH 8 overnight) (antibody, human IgG1, kappa, V domains shown)
VH: B9 VH
VL: B9 VL
modifications: KSP inhibitor-linker (Intermediate F104) on cysteine residues of the partially reduced antibody, sites not given; drug/mAb ratio 2.9
B16: Example 297L2 (Isomer 1): anti-B7H3 AK1B (TPP-5706) coupled with Intermediate F297 (antibody, human IgG1, kappa, V domains shown)
VH: B9 VH
VL: B9 VL
modifications: KSP inhibitor-linker (Intermediate F297) on cysteine residues of the partially reduced antibody, sites not given; drug/mAb ratio 3.1
B17: Example 296L2: anti-B7H3 AK1B (TPP-5706) coupled with Intermediate F296 (antibody, human IgG1, kappa, V domains shown)
VH: B9 VH
VL: B9 VL
modifications: KSP inhibitor-linker (Intermediate F296) on cysteine residues of the partially reduced antibody, sites not given; drug/mAb ratio 3.2

target: T1, B7H3 on B7H3-positive human tumour …; test: cell-based or functional assay; settings: not given

Molecule | IC50 [M] CTG, A498 cells (B7H3-positive) | IC50 [M] CTG, MCF-7 cells (B7H3-positive) | IC50 [M] CTG, Caki-2 cells (B7H3-positive)
B1 | 6e-07 M | 4.98e-09 M | 
B2 | 6e-07 M | 7e-08 M | 
B3 |  | 6.43e-10 M | 
B4 | 2.35e-09 M | 7.25e-10 M | 
B5 |  | 8.93e-09 M | 
B6 |  | 1.86e-09 M | 
B7 |  | 4.57e-09 M | 
B8 |  | 4.49e-10 M | 
B9 | 1.16e-10 M and 1.37e-10 M | 7.37e-11 M and 8.63e-11 M | 1.5e-11 M and < 3e-11 M
B10 | 1.39e-08 M | 3.42e-08 M | 5.26e-09 M
B11 | > 3e-07 M | 9.15e-11 M | > 3e-07 M
B12 |  | 7.02e-10 M | 
B13 | 7.49e-10 M | 1.58e-10 M | > 3e-07 M
B14 | 3.57e-10 M | 2.08e-10 M | 2.75e-10 M
B15 |  | 2.42e-10 M | 5.99e-09 M
B16 | > 3e-07 M | 7.56e-10 M | > 3e-07 M
B17 | 6.22e-10 M | 1.63e-10 M | > 3e-07 M

test system: KPL4; test: MTT assay, cytotoxicity of metabolites, KPL4; format: cell-based; settings: KPL4, 96 h, 96 h incubation
Description: The cells were cultivated according to the standard method using the growth media listed under C-1. The test is carried out by detaching the cells with a solution of Accutase in PBS (Biochrom AG #L2143), pelleting, resuspending in culture medium, counting and sowing into a 96-well culture plate with white bottom (Costar #3610) (NCI H292: 2500 cells/well in a total volume of 100 μl). The cells were then incubated in an incubator at 37° C. and 5% carbon dioxide. After 48 h, the medium was replaced. The metabolites in 10 μl of culture medium in concentrations from 10^−5M to 10^−13M were then pipetted to the cells (in triplicate), and the assay was then incubated in an incubator at 37° C. and 5% carbon dioxide. […] To this end, the MTT reagent was incubated with the cells for 4 h, followed by lysis of the cells overnight by addition of the detergent. The dye formed was detected at 570 nm (Infinite M1000 pro, Tecan). The measured data were used to calculate the IC50 of the growth inhibition using the DRC (dose response curve). The proliferation of cells which were not treated with test substance but were otherwise identically treated was defined as the 100% figure.

Molecule | IC50 [nM]
CC(C)(C)[C@H](c1cc(-c2cc(F)ccc2F)cn1Cc1ccccc1)N(CC[C@H](N)C(=O)NCCNC(=O)CSC[C@H](N)C(=O)O)C(=O)CO [Example M7, S-(2-{[2-({(2S)-2-Amino-4-[{(1R)-1-[1-benzyl-4-(2,5-difluorophenyl)-1H-pyrrol-2-yl]-2,2-dimethylpropyl}(glycoloyl)amino]butanoyl}amino)ethyl]amino}-2-oxoethyl)-L-cysteine/trifluoroacetic acid (1:1)] | 92.5
CC(C)(C)[C@H](c1cc(-c2cc(F)ccc2F)cn1Cc1ccccc1)N(CC[C@H](N)C(=O)NCCOCCN1C(=O)CC(SC[C@H](N)C(=O)O)C1=O)C(=O)CO (stereo partly drawn) [Example M4, S-(1-{2-[2-({(2S)-2-Amino-4-[{(1R)-1-[1-benzyl-4-(2,5-difluorophenyl)-1H-pyrrol-2-yl]-2,2-dimethylpropyl}(glycoloyl)amino]butanoyl}amino)ethoxy]ethyl}-2,5-dioxopyrrolidin-3-yl)-L-cysteine/trifluoroacetic acid (1:1)] | 176
CC(C)(C)[C@H](c1cc(-c2cc(F)ccc2F)cn1Cc1ccccc1)N(CC[C@H](N)C(=O)NCCNC(=O)CNC(=O)CC(SC[C@H](N)C(=O)O)C(=O)O)C(=O)CO (stereo partly drawn) [Example M13, 4-[(2-{[2-({(2S)-2-Amino-4-[{(1R)-1-[1-benzyl-4-(2,5-difluorophenyl)-1H-pyrrol-2-yl]-2,2-dimethylpropyl}(glycoloyl)amino]butanoyl}amino)ethyl]amino}-2-oxoethyl)amino]-2-{[(2R)-2-amino-2-carboxyethyl]sulphanyl}-4-oxobutanoic acid/trifluoroacetic acid (1:1)] | 169
CC(C)(C)[C@H](c1cc(-c2cc(F)ccc2F)cn1Cc1ccccc1)N(CC[C@H](N)C(=O)NCCNC(=O)CNC(=O)CC(SC[C@H](N)C(=O)O)C(=O)O)C(=O)CO (single isomer, unassigned) [Example M14] | 182
